Key:
SEC-MALS = molecular target: the molecule itself; assay: SEC-MALS
RpnAL = molecular target: T1, RpnAL (E. coli, UniProt P31667 1-292); assay: SEC-MALS
T1 sequence (looked up): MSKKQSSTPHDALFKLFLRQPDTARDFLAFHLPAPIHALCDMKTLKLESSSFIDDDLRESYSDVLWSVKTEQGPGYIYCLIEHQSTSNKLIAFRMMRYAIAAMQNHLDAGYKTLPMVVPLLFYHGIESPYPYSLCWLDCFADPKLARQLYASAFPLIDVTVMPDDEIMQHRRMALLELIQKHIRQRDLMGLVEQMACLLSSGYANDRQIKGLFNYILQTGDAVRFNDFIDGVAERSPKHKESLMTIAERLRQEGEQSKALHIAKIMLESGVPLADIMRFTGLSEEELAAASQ

B1: RpnAS (domain or fragment, E. coli, UniProt P31667 244-292, looked up)
chain: MTIAERLRQEGEQSKALHIAKIMLESGVPLADIMRFTGLSEEELAAASQ
stoichiometry N (SEC-MALS): 2 | stoichiometry N (RpnAL): 1 RpnAS per RpnAL (2:2)
